Laboratory results from publication PMC9482650, “Quantitative fragmentomics allow affinity mapping of interactomes” (Nature Communications, 2022).

Key:
Assay in all cases: holdup assay
Parameters in all cases: key: below the threshold = too weak to quantify, mostly under pKd 3.1 to 4
Conditions in all cases: plain residues with an end cap or a label only (N-terminal biotin on a linker: ado-ado)
GRASP, Q7Z6J2 = biological target: GRASP, Q7Z6J2
SIPA1L2, Q9P2F8 = biological target: T1, SIPA1L2, Q9P2F8
T1 sequence (Q9P2F8 945-1036, limits assumed, looked up): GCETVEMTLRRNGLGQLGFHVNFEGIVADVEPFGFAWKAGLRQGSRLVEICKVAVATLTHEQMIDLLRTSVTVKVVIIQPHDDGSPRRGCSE

DFNB31_1, Q9P202 = biological target: T2, DFNB31_1, Q9P202
T2 sequence (Q9P202 135-233, limits assumed, looked up): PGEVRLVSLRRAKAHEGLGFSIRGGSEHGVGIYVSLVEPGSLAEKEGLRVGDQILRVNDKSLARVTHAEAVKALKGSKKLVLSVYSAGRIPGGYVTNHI

GRID2IP_2, A4D2P6 = biological target: GRID2IP_2, A4D2P6
SHANK1, Q9Y566 = biological target: T3, SHANK1, Q9Y566
T3 sequence (Q9Y566 658-767, limits assumed, looked up): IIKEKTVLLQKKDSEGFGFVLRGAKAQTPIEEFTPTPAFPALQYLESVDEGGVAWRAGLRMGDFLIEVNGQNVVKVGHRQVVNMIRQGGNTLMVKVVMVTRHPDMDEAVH

GRIP1_4, Q9Y3R0 = biological target: T4, GRIP1_4, Q9Y3R0
T4 sequence (Q9Y3R0 467-571, limits assumed, looked up): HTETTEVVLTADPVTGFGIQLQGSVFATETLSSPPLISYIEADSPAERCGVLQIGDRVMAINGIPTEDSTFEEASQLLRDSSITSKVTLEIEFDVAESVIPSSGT

LDB3, O75112 = biological target: LDB3, O75112
SNTG2, Q9NY99 = biological target: T5, SNTG2, Q9NY99
T5 sequence (Q9NY99 68-166, limits assumed, looked up): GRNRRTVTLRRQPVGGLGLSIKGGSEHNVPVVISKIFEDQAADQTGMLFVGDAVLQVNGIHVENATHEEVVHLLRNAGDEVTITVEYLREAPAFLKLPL

Inadl_9, Q8NI35 = biological target: Inadl_9, Q8NI35
NHERF2_2, Q15599 = biological target: NHERF2_2, Q15599
DFNB31_2, Q9P202 = biological target: T6, DFNB31_2, Q9P202
T6 sequence (Q9P202 274-371, limits assumed, looked up): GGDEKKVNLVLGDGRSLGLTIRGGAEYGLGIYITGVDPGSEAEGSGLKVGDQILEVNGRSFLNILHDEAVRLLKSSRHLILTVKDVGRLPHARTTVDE

MAGI2_6, Q86UL8 = biological target: MAGI2_6, Q86UL8
IL16_1, Q14005 = biological target: IL16_1, Q14005
LNX2_2, Q8N448 = biological target: T7, LNX2_2, Q8N448
T7 sequence (Q8N448 334-432, limits assumed, looked up): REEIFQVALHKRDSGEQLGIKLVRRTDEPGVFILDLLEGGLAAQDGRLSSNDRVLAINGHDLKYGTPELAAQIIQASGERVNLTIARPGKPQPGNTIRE

DLG4_1, P78352 = biological target: DLG4_1, P78352
PTPN13_1, Q12923 = biological target: T8, PTPN13_1, Q12923
T8 sequence (Q12923 1088-1188, limits assumed, looked up): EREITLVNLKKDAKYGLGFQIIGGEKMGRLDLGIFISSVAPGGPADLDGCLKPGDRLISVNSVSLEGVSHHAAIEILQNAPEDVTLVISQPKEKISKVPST

MPP2, Q14168 = biological target: T9, MPP2, Q14168
T9 sequence (Q14168 180-250, limits assumed, looked up): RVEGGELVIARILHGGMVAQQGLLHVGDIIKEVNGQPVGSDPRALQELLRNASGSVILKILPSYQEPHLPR

SCRIB_3, Q14160 = biological target: SCRIB_3, Q14160
PDZD7_3, Q9H5P4 = biological target: T10, PDZD7_3, Q9H5P4
T10 sequence (Q9H5P4 857-944, limits assumed, looked up): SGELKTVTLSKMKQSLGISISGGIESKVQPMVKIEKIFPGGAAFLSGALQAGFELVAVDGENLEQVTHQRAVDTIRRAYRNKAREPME

CARD11, Q9BXL7 = biological target: T11, CARD11, Q9BXL7
T11 sequence (Q9BXL7 662-765, limits assumed, looked up): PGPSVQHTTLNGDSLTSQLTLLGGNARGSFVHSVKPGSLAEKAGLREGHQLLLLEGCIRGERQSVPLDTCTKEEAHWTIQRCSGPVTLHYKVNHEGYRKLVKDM

LNX1_1, Q8TBB1 = biological target: LNX1_1, Q8TBB1
PARD3B_1, Q8TEW8 = biological target: T12, PARD3B_1, Q8TEW8
T12 sequence (Q8TEW8 196-299, limits assumed, looked up): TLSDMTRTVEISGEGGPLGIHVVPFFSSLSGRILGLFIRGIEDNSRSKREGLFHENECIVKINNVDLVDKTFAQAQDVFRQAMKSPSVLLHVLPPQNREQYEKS

MAGI1_1, Q96QZ7 = biological target: MAGI1_1, Q96QZ7
GIPC2, Q8TF65 = biological target: GIPC2, Q8TF65
NHERF4_1, Q86UT5-2 = biological target: NHERF4_1, Q86UT5-2
Sequence of NHERF4_1, Q86UT5-2 (Q86UT5 other isoform, or with tags, fused parts or gaps): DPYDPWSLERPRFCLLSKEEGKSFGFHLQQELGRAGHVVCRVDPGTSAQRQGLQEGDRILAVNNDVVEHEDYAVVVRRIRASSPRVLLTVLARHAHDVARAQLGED

Sequence of DLG4_1, P78352 (P78352 62-152): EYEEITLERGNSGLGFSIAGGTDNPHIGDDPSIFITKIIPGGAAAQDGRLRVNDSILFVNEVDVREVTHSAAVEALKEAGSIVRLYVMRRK
Sequence of MAGI1_1, Q96QZ7 (Q96QZ7 1-106): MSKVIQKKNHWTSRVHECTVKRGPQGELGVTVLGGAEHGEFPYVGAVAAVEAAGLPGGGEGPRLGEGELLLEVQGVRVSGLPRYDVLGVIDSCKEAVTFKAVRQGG
Sequence of NHERF2_2, Q15599 (Q15599 142-238): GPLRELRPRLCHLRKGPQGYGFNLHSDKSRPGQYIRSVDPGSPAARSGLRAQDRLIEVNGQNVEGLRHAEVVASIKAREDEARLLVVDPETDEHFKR
Sequence of GRASP, Q7Z6J2 (Q7Z6J2 96-193): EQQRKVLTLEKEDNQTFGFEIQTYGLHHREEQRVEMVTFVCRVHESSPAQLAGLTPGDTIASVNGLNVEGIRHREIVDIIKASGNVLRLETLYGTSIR
Sequence of MAGI2_6, Q86UL8 (Q86UL8 1141-1229): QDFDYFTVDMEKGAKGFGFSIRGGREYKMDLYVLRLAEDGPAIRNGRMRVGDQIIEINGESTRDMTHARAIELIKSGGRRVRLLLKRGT
Sequence of GIPC2, Q8TF65 (Q8TF65 112-203): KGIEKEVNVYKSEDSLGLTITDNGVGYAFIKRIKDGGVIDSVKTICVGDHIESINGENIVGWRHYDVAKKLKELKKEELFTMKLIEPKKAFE
Sequence of GRID2IP_2, A4D2P6 (A4D2P6 272-370): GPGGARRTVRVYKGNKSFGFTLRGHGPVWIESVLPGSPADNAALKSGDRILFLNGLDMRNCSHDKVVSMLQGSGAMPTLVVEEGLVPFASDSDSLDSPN
Sequence of IL16_1, Q14005 (Q14005 210-306): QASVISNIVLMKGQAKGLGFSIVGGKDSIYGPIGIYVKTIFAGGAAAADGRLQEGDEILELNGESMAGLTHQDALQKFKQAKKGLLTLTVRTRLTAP
Sequence of LDB3, O75112 (O75112 1-94): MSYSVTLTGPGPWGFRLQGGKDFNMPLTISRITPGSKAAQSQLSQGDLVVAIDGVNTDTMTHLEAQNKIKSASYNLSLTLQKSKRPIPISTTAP
Sequence of LNX1_1, Q8TBB1 (Q8TBB1 261-371): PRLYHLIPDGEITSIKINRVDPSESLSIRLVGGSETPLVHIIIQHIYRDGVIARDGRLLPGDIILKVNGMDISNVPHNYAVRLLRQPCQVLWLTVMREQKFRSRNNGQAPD
Sequence of Inadl_9, Q8NI35 (Q8NI35 1530-1615): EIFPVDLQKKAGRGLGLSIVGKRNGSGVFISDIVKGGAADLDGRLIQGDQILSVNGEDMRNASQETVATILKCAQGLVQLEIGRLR
Sequence of SCRIB_3, Q14160 (Q14160 999-1103): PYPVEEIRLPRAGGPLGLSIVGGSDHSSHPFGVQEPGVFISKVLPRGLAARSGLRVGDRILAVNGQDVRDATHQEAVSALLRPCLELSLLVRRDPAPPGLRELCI

Row | Binder | pKd (GRASP, Q7Z6J2) | pKd (SIPA1L2, Q9P2F8) | pKd (DFNB31_1, Q9P202) | pKd (GRID2IP_2, A4D2P6) | pKd (SHANK1, Q9Y566) | pKd (GRIP1_4, Q9Y3R0) | pKd (LDB3, O75112) | pKd (SNTG2, Q9NY99) | pKd (Inadl_9, Q8NI35) | pKd (NHERF2_2, Q15599) | pKd (DFNB31_2, Q9P202) | pKd (MAGI2_6, Q86UL8) | pKd (IL16_1, Q14005) | pKd (LNX2_2, Q8N448) | pKd (DLG4_1, P78352) | pKd (PTPN13_1, Q12923) | pKd (MPP2, Q14168) | pKd (SCRIB_3, Q14160) | pKd (PDZD7_3, Q9H5P4) | pKd (CARD11, Q9BXL7) | other results
1 | GSQSQVETEA [FKBP4, Q02790] | 3.59 | below the threshold | below the threshold | 3.68 | 3.64 | below the threshold | below the threshold | below the threshold | below the threshold | below the threshold | below the threshold | below the threshold | below the threshold | below the threshold | below the threshold | below the threshold | below the threshold | 4.04 | below the threshold | below the threshold | pKd (LNX1_1, Q8TBB1): below the threshold; pKd (PARD3B_1, Q8TEW8): below the threshold; pKd (MAGI1_1, Q96QZ7): below the threshold; pKd (GIPC2, Q8TF65): 3.79; pKd (NHERF4_1, Q86UT5-2): 3.97
2 | ATKDKKITTV [EXOC4, Q96A65] | 3.95 | 3.52 | 3.58 | 3.98 | below the threshold | 3.48 | below the threshold | 3.92 | 3.63 | 3.6 | below the threshold | 3.72 | below the threshold | 5.24 | 5.25 | below the threshold | below the threshold | 3.84 | 5.64 | below the threshold | pKd (LNX1_1, Q8TBB1): 3.69; pKd (PARD3B_1, Q8TEW8): below the threshold; pKd (MAGI1_1, Q96QZ7): 3.61; pKd (GIPC2, Q8TF65): below the threshold; pKd (NHERF4_1, Q86UT5-2): 3.64
3 | SRPHTNETSL [MCC, P23508] | 3.96 | below the threshold | 4.28 | 4.21 | 4.17 | below the threshold | below the threshold | 4.66 | below the threshold | 4.49 | below the threshold | 3.8 | below the threshold | below the threshold | below the threshold | below the threshold | below the threshold | 5.13 | 4.36 | below the threshold | pKd (LNX1_1, Q8TBB1): below the threshold; pKd (PARD3B_1, Q8TEW8): 3.7; pKd (MAGI1_1, Q96QZ7): below the threshold; pKd (GIPC2, Q8TF65): 4.08; pKd (NHERF4_1, Q86UT5-2): 4.12
4 | GDSSRKEYFI [GYPC, P04921] | below the threshold | below the threshold | below the threshold | below the threshold | below the threshold | below the threshold | below the threshold | below the threshold | 3.51 | below the threshold | below the threshold | below the threshold | below the threshold | below the threshold | below the threshold | below the threshold | 4.36 | 4.13 | below the threshold | below the threshold | pKd (LNX1_1, Q8TBB1): below the threshold; pKd (PARD3B_1, Q8TEW8): 4.39; pKd (MAGI1_1, Q96QZ7): below the threshold; pKd (GIPC2, Q8TF65): below the threshold; pKd (NHERF4_1, Q86UT5-2): below the threshold
